Test results from paper doi:10.1101/651877 (bioRxiv, 2019).
Substitutions are numbered along the chain they refer to. Names and notes keep the numbering of the source.

B1: Mfn2^S378P with a C-terminal 3xFLAG tag (natural protein, UniProt Q80U63 1-757, looked up)
chain: MSLLFSRCNSIVTVKKDKRHMAEVNASPLKHFVTAKKKINGIFEQLGAYIQESASFLEDTHRNTELDPVTTEEQVLDVKGYLSKVRGISEVLARRHMKVAFFGRTSNGKSTVINAMLWDKVLPSGIGHTTNCFLRVGGTDGHEAFLLTEGSEEKKSVKTVNQLAHALHQDEQLHAGSMVSVMWPNSKCPLLKDDLVLMDSPGIDVTTELDSWIDKFCLDADVFVLVANSESTLMQTEKQFFHKVSERLSRPNIFILNNRWDASASEPEYMEEVRRQHMERCTSFLVDELGVVDRAQAGDRIFFVSAKEVLSARVQKAQGMPEGGGALAEGFQVRMFEFQNFERQFEECISQSAVKTKFEQHTVRAKQIAEAVRLIMDPLHIAAQEQRVYCLEMREERQDRLRFIDKQLELLAQDYKLRIKQITEEVERQVSTAMAEEIRRLSVLVDEYQMDFHPSPVVLKVYKNELHRHIEEGLGRNLSDRCSTAIASSLQTMQQDMIDGLKPLLPVSMRNQIDMLVPRQCFSLSYDLNCDKLCADFQEDIEFHFSLGWTMLVNRFLGPKNSRRALLGYSDQVQRPLPLTPANPSMPPLPQSSLTQEELMVSMVTGLASLTSRTSMGILVVGGVVWKAVGWRLIALSFGLYGLLYVYERLTWTTKAKERAFKRQFVEYASEKLQLIISYTGSNCSHQVQQELSGTFAHLCQQVDITRDNLEQEIAAMNKKVEALDSLQSRAKLLRNKAGWLDSELNMFTHQYLQPSR
B2: Mfn2^Q386P with a C-terminal 3xFLAG tag (natural protein, UniProt Q80U63 1-757, looked up)
chain: B1 chain with P378S, Q386P
B3: Mfn2^C390F with a C-terminal 3xFLAG tag (natural protein, UniProt Q80U63 1-757, looked up)
chain: B1 chain with P378S, C390F
B4: Mfn2^A383V with a C-terminal 3xFLAG tag (natural protein, UniProt Q80U63 1-757, looked up)
chain: B1 chain with P378S, A383V

What was measured:
[1] = target: wild type Mfn2 with a C-terminal 3xFLAG tag (UniProt Q80U63); assay: native gel or EMSA
native gel or EMSA = target: the molecule itself; assay: native gel or EMSA

Molecule | stoichiometry N [1] | stoichiometry N (native gel or EMSA)
wild type Mfn2 with a C-terminal 3xFLAG tag (from UniProt Q80U63 1-757) (natural protein) | 2 | 
B1 |  | 2
B2 |  | 2
B3 |  | 2
B4 |  | 2
